In the supplement of paper PMC12067230:
± gives the uncertainty stated by the source.

Experiment: amyloid nucleation score relative to WT ADan (yeast Sup35 reporter selection) (log enrichment difference); higher = more amyloid nucleation
Procedure: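 Deep mutational scan of the ADan peptide fused to the Sup35 nucleation domain (SupN) in S. cerevisiae [psi-pin-], covering all single amino-acid substitutions and stop truncations (truncations = sequence up to the stop). After 24 h Cu2+ induction, cells were selected on -ADE-URA plates for 7 d at 30 °C. The nucleation score is log enrichment (output/input, deep sequencing) minus that of WT ADan, as the error-weighted mean of 3 biological replicates (DiMSum).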

Substance	amyloid nucleation score
EAS [N-4-*]	-2.54 ± 0.48
EASN [C-5-*]	-4.07 ± 0.81
EASNC [F-6-*]	-3.12 ± 0.32
EASNCF [A-7-*]	-4.37 ± 0.56
EASNCFA [I-8-*]	-3.92 ± 0.58
EASNCFAI [R-9-*]	-3.67 ± 0.55
EASNCFAIR [H-10-*]	-4.06 ± 0.6
EASNCFAIRH [F-11-*]	-3.45 ± 0.39
EASNCFAIRHF [E-12-*]	-3.42 ± 0.34
EASNCFAIRHFE [N-13-*]	-5.86 ± 0.85
EASNCFAIRHFEN [K-14-*]	-4.92 ± 0.57
EASNCFAIRHFENK [F-15-*]	-4.43 ± 0.56
EASNCFAIRHFENKF [A-16-*]	-4.34 ± 0.67
EASNCFAIRHFENKFA [V-17-*]	-5.63 ± 1.4
EASNCFAIRHFENKFAV [E-18-*]	-3.23 ± 0.49
EASNCFAIRHFENKFAVE [T-19-*]	-3.43 ± 0.55
EASNCFAIRHFENKFAVET [L-20-*]	-4.16 ± 0.68
